Tests used:
[1] = tested on: HeLa Kyoto; assay: solubility in G1/S (NP-40 vs SDS abundance) (log2 ratio); higher = more soluble; settings: cell cycle stage: G1/S
[2] = tested on: HeLa Kyoto; assay: solubility change mitosis vs G1/S (difference of NP-40 vs SDS log2 ratios) (log2 ratio difference); higher = more soluble in mitosis
[3] = tested on: HeLa Kyoto; assay: melting temperature (median over replicates), in situ; higher = more thermally stable
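Wherever melting temperature (median over replicates), in situ is given: HeLa Kyoto cells synchronized by double thymidine or nocodazole block, proteins quantified by TMT10plex mass spectrometry, three independent biological replicates.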
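Wherever solubility change mitosis vs G1/S (difference of NP-40 vs SDS log2 ratios) is given: synchronized HeLa Kyoto cells (double thymidine block for G1/S, nocodazole release for mitosis), protein amounts in NP-40 versus SDS lysates quantified by mass spectrometry, three biological replicates.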
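Wherever solubility in G1/S (NP-40 vs SDS abundance) is given: HeLa Kyoto cells arrested at G1/S by double thymidine block, proteins quantified by TMT10plex mass spectrometry in mild NP-40 versus SDS extracts, three biological replicates.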

Chain of HMGN3 (chain, as listed by the source): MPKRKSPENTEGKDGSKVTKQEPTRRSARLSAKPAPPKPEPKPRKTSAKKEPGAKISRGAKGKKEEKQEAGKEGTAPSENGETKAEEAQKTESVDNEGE
Chain of DNAJC15 (chain, as listed by the source): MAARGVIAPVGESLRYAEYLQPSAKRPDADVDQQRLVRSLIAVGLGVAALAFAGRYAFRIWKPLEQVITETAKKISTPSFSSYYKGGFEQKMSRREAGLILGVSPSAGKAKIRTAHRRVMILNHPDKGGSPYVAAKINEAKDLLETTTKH
Chain of GNPTG (chain, as listed by the source): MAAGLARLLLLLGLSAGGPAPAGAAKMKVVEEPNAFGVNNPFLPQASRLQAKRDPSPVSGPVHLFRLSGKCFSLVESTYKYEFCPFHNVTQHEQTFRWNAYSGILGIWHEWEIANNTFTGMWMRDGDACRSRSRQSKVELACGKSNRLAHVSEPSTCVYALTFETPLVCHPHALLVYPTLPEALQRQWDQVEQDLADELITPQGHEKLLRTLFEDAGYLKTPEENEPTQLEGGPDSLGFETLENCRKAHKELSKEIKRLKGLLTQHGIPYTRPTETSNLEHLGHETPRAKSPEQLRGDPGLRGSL
Chain of DNAJC19 (chain, as listed by the source): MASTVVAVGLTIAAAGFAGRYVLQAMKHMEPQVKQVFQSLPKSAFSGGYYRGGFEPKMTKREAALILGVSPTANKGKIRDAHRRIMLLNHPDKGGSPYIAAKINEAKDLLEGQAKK
Chain of GNG12 (chain, as listed by the source): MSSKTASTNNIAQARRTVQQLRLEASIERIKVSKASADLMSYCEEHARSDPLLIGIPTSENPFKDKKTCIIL
Chain of SENP3 (chain, as listed by the source): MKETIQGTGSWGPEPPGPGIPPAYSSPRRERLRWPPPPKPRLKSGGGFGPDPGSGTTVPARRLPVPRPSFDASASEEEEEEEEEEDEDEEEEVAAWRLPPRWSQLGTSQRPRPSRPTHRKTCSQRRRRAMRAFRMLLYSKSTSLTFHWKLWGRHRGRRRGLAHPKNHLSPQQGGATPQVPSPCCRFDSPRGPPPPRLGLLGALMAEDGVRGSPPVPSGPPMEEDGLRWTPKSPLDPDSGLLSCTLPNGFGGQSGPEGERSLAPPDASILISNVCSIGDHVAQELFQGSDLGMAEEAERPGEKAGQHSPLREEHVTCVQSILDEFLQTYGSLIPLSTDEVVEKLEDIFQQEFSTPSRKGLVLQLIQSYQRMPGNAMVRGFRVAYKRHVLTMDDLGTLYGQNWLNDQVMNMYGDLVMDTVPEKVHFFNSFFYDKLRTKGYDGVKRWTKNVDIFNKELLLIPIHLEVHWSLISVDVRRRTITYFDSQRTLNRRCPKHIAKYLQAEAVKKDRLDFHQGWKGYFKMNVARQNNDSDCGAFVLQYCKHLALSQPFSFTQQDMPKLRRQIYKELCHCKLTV
Chain of STK25 (chain, as listed by the source): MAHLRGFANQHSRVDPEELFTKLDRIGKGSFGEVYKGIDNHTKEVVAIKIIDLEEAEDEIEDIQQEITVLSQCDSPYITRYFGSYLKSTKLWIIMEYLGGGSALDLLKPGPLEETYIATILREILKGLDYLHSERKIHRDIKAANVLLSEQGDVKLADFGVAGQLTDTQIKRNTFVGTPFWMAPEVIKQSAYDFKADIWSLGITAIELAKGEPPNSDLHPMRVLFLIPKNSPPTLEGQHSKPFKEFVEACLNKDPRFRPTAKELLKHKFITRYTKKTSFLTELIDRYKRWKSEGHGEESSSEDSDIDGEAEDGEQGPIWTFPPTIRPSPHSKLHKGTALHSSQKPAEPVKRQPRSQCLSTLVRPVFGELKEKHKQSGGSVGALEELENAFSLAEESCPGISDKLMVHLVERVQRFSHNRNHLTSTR
Chain of POMGNT1 (chain, as listed by the source): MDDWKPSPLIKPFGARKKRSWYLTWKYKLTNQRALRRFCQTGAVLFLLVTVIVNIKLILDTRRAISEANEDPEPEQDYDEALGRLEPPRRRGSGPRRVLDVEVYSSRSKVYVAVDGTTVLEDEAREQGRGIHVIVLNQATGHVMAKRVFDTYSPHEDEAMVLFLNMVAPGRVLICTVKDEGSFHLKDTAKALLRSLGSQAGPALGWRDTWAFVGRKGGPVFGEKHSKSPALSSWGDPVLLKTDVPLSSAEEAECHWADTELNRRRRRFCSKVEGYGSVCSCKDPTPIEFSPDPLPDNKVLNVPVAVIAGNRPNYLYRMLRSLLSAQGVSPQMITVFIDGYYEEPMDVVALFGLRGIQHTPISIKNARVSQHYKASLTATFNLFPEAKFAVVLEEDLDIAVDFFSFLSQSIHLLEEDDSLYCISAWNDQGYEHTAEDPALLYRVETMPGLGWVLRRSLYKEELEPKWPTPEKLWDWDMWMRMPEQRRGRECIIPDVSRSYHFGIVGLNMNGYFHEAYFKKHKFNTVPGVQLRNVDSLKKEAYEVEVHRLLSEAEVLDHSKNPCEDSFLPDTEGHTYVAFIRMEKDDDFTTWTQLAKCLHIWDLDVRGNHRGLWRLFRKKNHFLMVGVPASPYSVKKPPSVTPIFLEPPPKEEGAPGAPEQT

Substance | solubility in G1/S (log2) [1] | solubility change mitosis (log2) [2] | melting temperature ([3]; cell cycle stage: mitosis) [°C] | melting temperature ([3]; cell cycle stage: G1/S) [°C]
ABTB2 | 0.00296 | -0.181 | 48.8 | 
BCL9L | 0.294 | 0.083 | 54.4 | 55.7
CHD8 | -0.156 | -0.0952 | 50.1 | 46.5
CHD9 | -0.312 | 0.0275 | 50.1 | 
DNAJC15 | 0.11 | -0.164 | 51.2 | 51
DNAJC19 | -0.0616 | 0.348 | 53.5 | 53.4
GNG12 | -1.84 | 0.506 | 54 | 52.4
GNPTG | -0.582 | 0.688 | 53.9 | 54
H2AFV | -0.332 | 0.429 |  | 52.5
HMGN3 | -0.266 | 1.55 | 56.8 | 
MAAAAAGAGSGPWAAQEKQFPPALLSFFIYNPRFGPREGQEENKILFYHPNEVEKNEKIRNVGLCEAIVQFTRTFSPSKPAKSLHTQKNRQFFNEPEENFWMVMVVRNPIIEKQSKDGKPVIEYQEEELLDKVYSSVLRQCYSMYKLFNGTFLKAMEDGGVKLLKERLEKFFHRYLQTLHLQSCDLLDIFGGISFFPLDKMTYLKIQSFINRMEESLNIVKYTAFLYNDQLIWSGLEQDDMRILYKYLTTSLFPRHIEPELAGRDSPIRAEMPGNLQHYGRFLTGPLNLNDPDAKCRFPKIFVNTDDTYEELHLIVYKAMSAAVCFMIDASVHPTLDFCRRLDSIVGPQLTVLASDICEQFNINKRMSGSEKEPQFKFIYFNHMNLAEKSTVHMRKTPSVSLTSVHPDLMKILGDINSDFTRVDEDEEIIVKAMSDYWVVGKKSDRRELYVILNQKNANLIEVNEEVKKLCATQFNNIFFLD [CCZ1] | 0.0726 | -0.169 | 51.8 | 50.9
MAAAGARPVELGFAESAPAWRLRSEQFPSKVGGRPAWLGAAGLPGPQALACELCGRPLSFLLQVYAPLPGRPDAFHRCIFLFCCREQPCCAGLRVFRNQLPRKNDFYSYEPPSENPPPETGESVCLQLKSGAHLCRVCGCLGPKTCSRCHKAYYCSKEHQTLDWRLGHKQACAQPDHLDHIIPDHNFLFPEFEIVIETEDEIMPEVVEKEDYSEIIGSMGEALEEELDSMAKHESREDKIFQKFKTQIALEPEQILRYGRGIAPIWISGENIPQEKDIPDCPCGAKRILEFQVMPQLLNYLKADRLGKSIDWGILAVFTCAESCSLGTGYTEEFVWKQDVTDTP [PDCD2] | -0.116 | -0.0555 | 48.3 | 48.5
MAAPEAPPLDRVFRTTWLSTECDSHPLPPSYRKFLFETQAADLAGGTTVAAGNLLNESEKDCGQDRRAPGVQPCRLVTMTSVVKTVYSLQPPSALSGGQPADTQTRATSKSLLPVRSKEVDVSKQLHSGGPENDVTKITKLRRENGQMKATDTATRRNVRKGYKPLSKQKSEEELKDKNQLLEAVNKQLHQKLTETQGELKDLTQKVELLEKFRDNCLAILESKGLDPALGSETLASRQESTTDHMDSMLLLETLQEELKLFNETAKKQMEELQALKVKLEMKEERVRFLEQQTLCNNQVNDLTTALKEMEQLLEM [KNSTRN] | 0.269 | 0.517 | 50.5 | 48.7
MAAPEAWRARSCWFCEVAAATTMEATSREAAPAKSSASGPNAPPALFELCGRAVSAHMGVLESGVWALPGPILQSILPLLNIYYLERIEETALKKGLSTQAIWRRLWDELMKTRPSSLESVTCWRAKFMEAFFSHVLRGTIDVSSDRRLCDQRFSPLLHSSRHVRQLTICNMLQGATELVAEPNRRVLETLASSLHTLKFRHLLFSDVAAQQSLRQLLHQLIHHGAVSQVSLYSWPVPESALFILILTMSAGFWQPGPGGPPCRLCGEASRGRAPSRDEGSLLLGSRRPRRDAAERCAAALMASRRKSEAKQMPRAAPATRVTRRSTQESLTAGGTDLKRELHPPATSHEAPGTKRSPSAPAATSSASSSTSSYKRAPASSAPQPKPLKRFKRAAGKKGARTRQGPGAESEDLYDFVFIVAGEKEDGEEMEIGEVACGALDGSDPSCLGLPALEASQRFRSISTLELFTVPLSTEAALTLCHLLSSWVSLESLTLSYNGLGSNIFRLLDSLRALSGQAGCRLRALHLSDLFSPLPILELTRAIVRALPLLRVLSIRVDHPSQRDNPGVPGNAGPPSHIIGDEEIPENCLEQLEMGFPRGAQPAPLLCSVLKASGSLQQLSLDSATFASPQDFGLVLQTLKEYNLALKRLSFHDMNLADCQSEVLFLLQNLTLQEITFSFCRLFEKRPAQFLPEMVAAMKGNSTLKGLRLPGNRLGNAGLLALADVFSEDSSSSLCQLDISSNCIKPDGLLEFAKRLERWGRGAFGHLRLFQNWLDQDAVTAREAIRRLRATCHVVSDSWDSSQAFADYVSTM [LRRC41] | -0.31 | 0.0944 | 49.5 | 47.9
MAAPSGTVSDSESSNSSSDAEELERCREAAMPAWGLEQRPHVAGKPRAGAANSQLSTSQPSLRHKVNEHEQDGNELQTTPEFRAHVAKKLGALLDSFITISEAAKEPAKAKVQKVALEDDGFRLFFTSVPGGREKEESPQPRRKRQPSSSSEDSDEEWRRCREAAVSASDILQESAIHSPGTVEKEAKKKRKLKKKAKKVASVDSAVAATTPTSMATVQKQKSGELNGDQVSLGTKKKKKAKKASETSPFPPAKSATAIPAN [C12ORF43] | -0.08 | 0.379 | 56.9 | 56.1
MAAQGAAAAVAAGTSGVAGEGEPGPGENAAAEGTAPSPGRVSPPTPARGEPEVTVEIGETYLCRRPDSTWHSAEVIQSRVNDQEGREEFYVHYVGFNRRLDEWVDKNRLALTKTVKDAVQKNSEKYLSELAEQPERKITRNQKRKHDEINHVQKTYAEMDPTTAALEKEHEAITKVKYVDKIHIGNYEIDAWYFSPFPEDYGKQPKLWLCEYCLKYMKYEKSYRFHLGQCQWRQPPGKEIYRKSNISVYEVDGKDHKIYCQNLCLLAKLFLDHKTLYFDVEPFVFYILTEVDRQGAHIVGYFSKEKESPDGNNVACILTLPPYQRRGYGKFLIAFSYELSKLESTVGSPEKPLSDLGKLSYRSYWSWVLLEILRDFRGTLSIKDLSQMTSITQNDIISTLQSLNMVKYWKGQHVICVTPKLVEEHLKSAQYKKPPITVDSVCLKWAPPKHKQVKLSKK [KAT8] | -0.134 | -0.249 | 49.9 | 
MAASRYRRFLKLCEEWPVDETKRGRDLGAYLRQRVAQAFREGENTQVAEPEACDQMYESLARLHSNYYKHKYPRPRDTSFSGLSLEEYKLILSTDTLEELKEIDKGMWKKLQEKFAPKGPEEDHKA [UQCC2] | 0.0537 | 0.507 |  | 45.6
MAATMKKAAAEDVNVTFEDQQKINKFARNTSRITELKEEIEVKKKQLQNLEDACDDIMLADDDCLMIPYQIGDVFISHSQEETQEMLEEAKKNLQEEIDALESRVESIQRVLADLKVQLYAKFGSNINLEADES [PFDN4] | -0.219 | 0.523 | 53.5 | 55.5
MAAVFDLDLETEEGSEGEGEPELSPADACPLAELRAAGLEPVGHYEEVELTETSVNVGPERIGPHCFELLRVLGKGGYGKVFQVRKVQGTNLGKIYAMKVLRKAKIVRNAKDTAHTRAERNILESVKHPFIVELAYAFQTGGKLYLILECLSGGELFTHLEREGIFLEDTACFYLAEITLALGHLHSQGIIYRDLKPENIMLSSQGHIKLTDFGLCKESIHEGAVTHTFCGTIEYMAPEILVRSGHNRAVDWWSLGALMYDMLTGSPPFTAENRKKTMDKIIRGKLALPPYLTPDARDLVKKFLKRNPSQRIGGGPGDAADVQRHPFFRHMNWDDLLAWRVDPPFRPCLQSEEDVSQFDTRFTRQTPVDSPDDTALSESANQAFLGFTYVAPSVLDSIKEGFSFQPKLRSPRRLNSSPRAPVSPLKFSPFEGFRPSPSLPEPTELPLPPLLPPPPPSTTAPLPIRPPSGTKKSKRGRGRPGR [RPS6KB2] | -0.0277 | 0.0325 | 50.9 | 51.3
MAENHCELLSPARGGIGAGLGGGLCRRCSAGLGALAQRPGSVSKWVRLNVGGTYFLTTRQTLCRDPKSFLYRLCQADPDLDSDKDETGAYLIDRDPTYFGPVLNYLRHGKLVINKDLAEEGVLEEAEFYNITSLIKLVKDKIRERDSKTSQVPVKHVYRVLQCQEEELTQMVSTMSDGWKFEQLVSIGSSYNYGNEDQAEFLCVVSKELHNTPYGTASEPSEKAKILQERGSRM [KCTD5] | 0.136 | -0.0362 | 57.5 | 56.7
MAEPDYIEDDNPELIRPQKLINPVKTSRNHQDLHRELLMNQKRGLAPQNKPELQKVMEKRKRDQVIKQKEEEAQKKKSDLEIELLKRQQKLEQLELEKQKLQEEQENAPEFVKVKGNLRRTGQEVAQAQES [FAM107B] | 0.00364 | 0.435 |  | 57.3
MWYHRLSHLHSRLQDLLKGGVIYPALPQPNFKSLLPLAVHWHHTASKSLTCAWQQHEDHFELKYANTVMRFDYVWLRDHCRSASCYNSKTHQRSLDTASVDLCIKPKTIRLDETTLFFTWPDGHVTKYDLNWLVKNSYEGQKQKVIQPRILWNAEIYQQAQVPSVDCQSFLETNEGLKKFLQNFLLYGIAFVENVPPTQEHTEKLAERISLIRETIYGRMWYFTSDFSRGDTAYTKLALDRHTDTTYFQEPCGIQVFHCLKHEGTGGRTLLVDGFYAAEQVLQKAPEEFELLSKVPLKHEYIEDVGECHNHMIGIGPVLNIYPWNKELYLIRYNNYDRAVINTVPYDVVHRWYTAHRTLTIELRRPENEFWVKLKPGRVLFIDNWRVLHGRECFTGYRQLCGCYLTRDDVLNTARLLGLQA [TMLHE] | -0.167 | 0.114 |  | 
NUFIP1 | -0.519 | 0.162 |  | 
POMGNT1 | -0.257 | -0.0514 |  | 
SENP3 | -1.5 | 1.04 |  | 
SIPA1L2 | -0.433 | 0.275 |  | 
STK25 | 0.291 | -0.12 |  | 
SYNJ2 | -0.61 | 0.309 |  | 
WDFY3 | -0.364 | 0.0228 |  | 

Reference: the supplement of paper PMC5998384
